Assay results reported in article PMC8387475, “Combined intermittent fasting and ERK inhibition enhance the anti-tumor effects of chemotherapy via the GSK3β-SIRT7 axis” (Nature Communications, 2021).

Molecular target: T1, His-GSK3β (UniProt P49841 1-420)
T1 construct: GSK3β, recombinant protein of the GST pull-down; The reagents list a bought recombinant human GSK3β protein (active) (Abcam ab60863); also called recombinant His-GSK3β; source: recombinant
Experiment: pull-down; GST pull-down with recombinant GST-SIRT7 and His-GSK3β
Conditions: both partners purified

T1 sequence (P49841 whole entry): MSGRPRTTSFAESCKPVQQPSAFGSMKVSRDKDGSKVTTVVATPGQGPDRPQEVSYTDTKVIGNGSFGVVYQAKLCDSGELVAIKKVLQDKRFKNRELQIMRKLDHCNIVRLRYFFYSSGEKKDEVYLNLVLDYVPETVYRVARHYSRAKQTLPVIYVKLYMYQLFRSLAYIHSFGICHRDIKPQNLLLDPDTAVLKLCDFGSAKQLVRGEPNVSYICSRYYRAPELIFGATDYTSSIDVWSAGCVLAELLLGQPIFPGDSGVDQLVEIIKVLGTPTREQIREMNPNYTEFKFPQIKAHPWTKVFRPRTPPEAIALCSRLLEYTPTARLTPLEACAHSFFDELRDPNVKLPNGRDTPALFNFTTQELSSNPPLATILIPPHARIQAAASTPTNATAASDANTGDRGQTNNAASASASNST

B1: GST-SIRT7 (natural protein, human, UniProt Q9NRC8 1-400, looked up)
chain: MAAGGLSRSERKAAERVRRLREEQQRERLRQVSRILRKAAAERSAEEGRLLAESADLVTELQGRSRRREGLKRRQEEVCDDPEELRGKVRELASAVRNAKYLVVYTGAGISTAASIPDYRGPNGVWTLLQKGRSVSAADLSEAEPTLTHMSITRLHEQKLVQHVVSQNCDGLHLRSGLPRTAISELHGNMYIEVCTSCVPNREYVRVFDVTERTALHRHQTGRTCHKCGTQLRDTIVHFGERGTLGQPLNWEAATEAASRADTILCLGSSLKVLKKYPRLWCMTKPPSRRPKLYIVNLQWTPKDDWAALKLHGKCDDVMRLLMAELGLEIPAYSRWQDPIFSLATPLRAGEEGSHSRKSLCRSREEAPPGDRGAPLSSAPILGGWFGRGCTKRTKRKKVT
notes: SIRT7 cloned into pGEX-4T-3; also called GST-SIRT7-WT; recombinant GST-SIRT7; source: E. coli BL21, purified (glutathione agarose)
B1: binds.
